According to article PMC8589032 (Journal of molecular biology, 2018):

Columns and labels:
ubiquitin [1] = biological target: T1, ubiquitin (UniProt P0CG48 1-76); test: ITC
ubiquitin [2] = biological target: T1, ubiquitin; test: NMR titration

| Binder | Kd (ubiquitin [1]) | binding result (ubiquitin [2]) |
| --- | --- | --- |
| ESNSDAGINLIALPAFSQVDPEVFAALPAELQRELKAAYDQRQ (domain or fragment, human, UniProt Q9UBZ9-1 998-1040, looked up) [REV1 UBM2 (residues E998 to Q1040)] | 14.9 ± 3 µM |  |
| REV1 UBM1-UBM2 (C958S C977A) (domain or fragment, human, UniProt Q9UBZ9-1 933-1040, looked up) PSPSQLDQSVLEALPPDLREQVEQVSAVQQAESHGDKKKEPVNGANTGILPQPVGTVLLQIPEPQESNSDAGINLIALPAFSQVDPEVFAALPAELQRELKAAYDQRQ | 18.7 ± 1.6 µM |  |
| REV1 UBM1-UBM2 (residues 933-1040, wild-type) (domain or fragment, human, UniProt Q9UBZ9-1 933-1040, looked up) PSPSQLDQSVLEALPPDLREQVEQVCAVQQAESHGDKKKEPVNGCNTGILPQPVGTVLLQIPEPQESNSDAGINLIALPAFSQVDPEVFAALPAELQRELKAAYDQRQ |  | binds |
